The test deals with Urease beta subunit (urea amidohydrolase) (UreB) of H. pylori (H. pylori, UniProt P69996 1-569). Nature of the test: crystal structure.

Data on one molecule can be found in article PMC6886524 (Journal of structural and functional genomics, 2015).

Urease beta subunit (urea amidohydrolase) (UreB) of H. pylori, sequence (P69996 whole entry): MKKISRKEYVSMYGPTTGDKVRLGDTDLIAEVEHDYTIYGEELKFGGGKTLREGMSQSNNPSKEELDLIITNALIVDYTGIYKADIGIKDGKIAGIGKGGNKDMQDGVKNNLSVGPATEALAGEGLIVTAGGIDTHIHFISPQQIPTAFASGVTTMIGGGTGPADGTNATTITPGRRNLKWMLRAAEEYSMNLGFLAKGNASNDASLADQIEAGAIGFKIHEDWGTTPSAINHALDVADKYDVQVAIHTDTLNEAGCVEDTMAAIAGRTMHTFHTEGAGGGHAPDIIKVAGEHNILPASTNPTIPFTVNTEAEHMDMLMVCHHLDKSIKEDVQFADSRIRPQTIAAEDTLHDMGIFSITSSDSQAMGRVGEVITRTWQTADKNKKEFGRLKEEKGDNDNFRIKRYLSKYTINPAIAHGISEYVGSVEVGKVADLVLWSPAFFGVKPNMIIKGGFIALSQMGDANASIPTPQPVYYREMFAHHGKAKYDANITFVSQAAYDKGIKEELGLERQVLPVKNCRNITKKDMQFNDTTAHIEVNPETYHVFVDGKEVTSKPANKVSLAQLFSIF

B1: Urease alpha subunit (UreA) (urea amidohydrolase) of H. pylori (natural protein)
chain: MKLTPKELDKLMLHYAGELAKKRKEKGIKLNYVEAVALISAHIMEEARAGKKTAAELMQEGRTLLKPDDVMDGVASMIHEVGIEAMFPDGTKLVTVHTPIEANGKLVPGELFLKNEDITINEGKKAVSVKVKNVGDRPVQIGSHFHFFEVNRCLDFDREKTFGKRLDIASGTAVRFEPGEEKSVELIDIGGNRRIFGFNALVDRQADNESKKIALHRAKERGFHGAKSDDNYVKTIKE
On to B1, for which the binding result is listed as “binds”.
